Data published in PMC5612113.

B1: Notch1 TM helix-containing fragment, Notch1(1721–1767) [human] / itself (parent)
chain: VQSETVEPPPPAQLHFMYVAAAAFVLLFFVGCGVLLSRKRRRQHGQL
B2: Notch4 TM helix-containing fragment, Notch4(1432–1481) [human] / itself (parent)
chain: VHPHAGTAPPANQLPWPVLCSPVAGVILLALGALLVLQLIRRRRREHGAL
B3: Notch2 TM helix-containing fragment, Notch2(1666–1710) [human] / itself (parent)
chain: VVSESLTPERTQLLYLLAVAVVIILFIILLGVIMAKRKRKHGSLW
B4: Notch3 TM helix-containing fragment, Notch3(1629–1675) [human] / itself (parent)
chain: VRGEPLEPPEPSVPLLPLLVAGAVLLLVILVLGVMVARRKREHSTLW

Variants of: B1
Assay: Tango assay
Details: with itself;; read off a plot

Variant	response (relative activity (C99-WT = 100))
VQSETVEPPPPAQLHFMYVPPAAFVLLFFVGCGVLLSRKRRRQHGQL [chain 1 A20P A21P]	130
VQSETVEPPPPAQLHFMYVAAAAFVLLPPVGCGVLLSRKRRRQHGQL [chain 1 F28P F29P]	93
VQSETVEPPPPAQLHFMYVAAAAFVLLFFPPCGVLLSRKRRRQHGQL [chain 1 V30P G31P]	91

Variants of: B2
Assay: Tango assay
Details: with itself;; read off a plot

Variant	response (relative activity (C99-WT = 100))
VHPHAGTAPPANQLPWPVLCSPVAGVILLALGPPLVLQLIRRRRREHGAL [chain 1 A33P L34P]	140
VHPHAGTAPPANQLPWPVLCSPVAGVILLAPPALLVLQLIRRRRREHGAL [chain 1 L31P G32P]	93
VHPHAGTAPPANQLPWPVLCSPPPGVILLALGALLVLQLIRRRRREHGAL [chain 1 V23P A24P]	130

Variants of: B3
Assay: Tango assay
Details: with itself;; read off a plot

Variant	response (relative activity (C99-WT = 100))
VVSESLTPERTQLLYLLPPAVVIILFIILLGVIMAKRKRKHGSLW [chain 1 A18P V19P]	82
VVSESLTPERTQLLYLLAVAVVIILPPILLGVIMAKRKRKHGSLW [chain 1 F26P I27P]	46
VVSESLTPERTQLLYLLAVAVVIILFIPPLGVIMAKRKRKHGSLW [chain 1 I28P L29P]	53

Variants of: B4
Assay: Tango assay
Details: with itself;; read off a plot

Variant	response (relative activity (C99-WT = 100))
VRGEPLEPPEPSVPLLPLLVAGAVLLLPPLVLGVMVARRKREHSTLW [chain 1 V28P I29P]	62
VRGEPLEPPEPSVPLLPLLPPGAVLLLVILVLGVMVARRKREHSTLW [chain 1 V20P A21P]	84
VRGEPLEPPEPSVPLLPLLVAGAVLLLVIPPLGVMVARRKREHSTLW [chain 1 L30P V31P]	91
